{"source": "patent US20100029507", "key": {"[1]": {"target": "E. coli malic enzyme-kemptide fusion protein (UniProt P26616)", "sequence (P26616 whole entry, looked up, the tested form may be a part)": "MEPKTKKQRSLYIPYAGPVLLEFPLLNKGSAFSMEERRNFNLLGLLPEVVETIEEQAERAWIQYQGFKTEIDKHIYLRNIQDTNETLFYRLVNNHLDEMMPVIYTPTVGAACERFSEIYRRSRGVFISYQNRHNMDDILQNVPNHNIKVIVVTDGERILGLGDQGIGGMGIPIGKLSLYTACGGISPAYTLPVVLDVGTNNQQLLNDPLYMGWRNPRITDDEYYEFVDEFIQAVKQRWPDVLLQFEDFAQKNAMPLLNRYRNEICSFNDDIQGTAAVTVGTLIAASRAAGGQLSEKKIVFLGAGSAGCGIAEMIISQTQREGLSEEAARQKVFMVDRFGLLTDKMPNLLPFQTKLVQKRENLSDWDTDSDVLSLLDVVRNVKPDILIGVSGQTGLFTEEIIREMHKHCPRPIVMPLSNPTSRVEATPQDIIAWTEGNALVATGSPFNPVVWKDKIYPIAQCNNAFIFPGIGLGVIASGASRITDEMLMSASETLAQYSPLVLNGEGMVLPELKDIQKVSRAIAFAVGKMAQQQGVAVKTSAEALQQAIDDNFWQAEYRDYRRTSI"}, "bovine serum albumin": {"target": "bovine serum albumin (UniProt P02769)", "sequence (P02769 25-607)": "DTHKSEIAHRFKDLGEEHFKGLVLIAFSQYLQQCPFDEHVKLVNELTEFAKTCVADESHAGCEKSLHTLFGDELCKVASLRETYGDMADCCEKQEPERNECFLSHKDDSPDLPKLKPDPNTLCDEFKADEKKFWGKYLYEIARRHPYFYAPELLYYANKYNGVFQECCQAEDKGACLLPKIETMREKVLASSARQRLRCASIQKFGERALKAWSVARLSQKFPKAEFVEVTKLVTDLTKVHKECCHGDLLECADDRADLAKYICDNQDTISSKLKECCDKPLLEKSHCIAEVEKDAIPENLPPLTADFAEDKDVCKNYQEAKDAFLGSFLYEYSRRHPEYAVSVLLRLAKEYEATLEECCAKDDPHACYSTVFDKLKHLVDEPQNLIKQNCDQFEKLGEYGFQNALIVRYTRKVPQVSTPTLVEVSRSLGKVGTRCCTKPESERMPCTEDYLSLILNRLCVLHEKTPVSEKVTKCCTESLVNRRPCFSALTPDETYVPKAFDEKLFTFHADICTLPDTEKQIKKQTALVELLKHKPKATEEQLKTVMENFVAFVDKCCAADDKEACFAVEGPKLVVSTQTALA"}}}
{"substance": "cAMP-dependent protein kinase", "values": [{"measurement": "phosphorylation with [gamma-32P]ATP on the biochip after different blocking solutions or none", "setting": "[1]", "result": "clear spots were observed not only when 1% BSA was treated but also when 1% glycine and 10% glycerol were treated"}, {"measurement": "phosphorylation with [gamma-32P]ATP on the biochip, X-ray film", "setting": "[1]", "result": "spot signals were clearly confirmed on the malic enzyme-kemptide fusion protein or kemptide spot"}, {"measurement": "phosphorylation with [gamma-32P]ATP on the biochip, X-ray film", "setting": "bovine serum albumin", "result": "no signal was observed on No. 1 BSA spot selected as a negative control"}, {"measurement": "phosphorylation with [gamma-32P]ATP on the biochip after different blocking solutions or none", "setting": "kemptide", "result": "clear spots were observed not only when 1% BSA was treated but also when 1% glycine and 10% glycerol were treated"}, {"measurement": "phosphorylation with [gamma-32P]ATP on the biochip, X-ray film", "setting": "kemptide", "result": "spot signals were clearly confirmed on the malic enzyme-kemptide fusion protein or kemptide spot"}, {"measurement": "phosphorylation with [gamma-32P]ATP on the biochip, X-ray film against image plate (IP)", "setting": "kemptide", "result": "signals were clearly detected on IP film even with short sensitization time"}]}
